Reference: publication PMC3654694 (Immunity, 2012)
Where two headings read alike, the source gives them in different places.

T1: STING CTD (STINGΔ1-138, AA139-379), His-tag removed (human), Q86WV6
T1 chain: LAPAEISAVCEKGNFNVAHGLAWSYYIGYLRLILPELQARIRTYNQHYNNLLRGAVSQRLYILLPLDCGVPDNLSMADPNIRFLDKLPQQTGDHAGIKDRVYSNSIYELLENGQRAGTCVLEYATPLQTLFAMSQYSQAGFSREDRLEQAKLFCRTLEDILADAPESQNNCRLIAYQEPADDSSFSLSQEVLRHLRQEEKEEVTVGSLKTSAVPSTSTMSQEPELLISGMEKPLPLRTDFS

T2: STING CTD WT (AA139-379) with His-tag (human), Q86WV6
T2 chain: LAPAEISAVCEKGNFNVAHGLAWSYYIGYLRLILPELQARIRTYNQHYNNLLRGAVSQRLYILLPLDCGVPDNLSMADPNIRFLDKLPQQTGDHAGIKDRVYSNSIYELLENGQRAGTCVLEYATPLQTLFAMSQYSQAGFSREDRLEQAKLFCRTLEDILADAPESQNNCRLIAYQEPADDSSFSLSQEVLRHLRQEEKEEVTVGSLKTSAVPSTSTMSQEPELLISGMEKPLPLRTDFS


Experiments:
[1] = molecular target: T1, STING CTD (STINGΔ1-138, AA139-379), …; test: AUC; conditions: remark: other sources report otherwise
SEC = molecular target: the molecule itself; test: SEC
[2] = molecular target: T2, STING CTD WT (AA139-379) with His-tag …; test: SEC; conditions: remark: other sources report otherwise
[3] = molecular target: the molecule itself

Binder | stoichiometry N (SEC) | also measured
STING CTD (STINGΔ1-138, AA139-379), His-tag removed, Q86WV6 139-379 (domain or fragment) LAPAEISAVCEKGNFNVAHGLAWSYYIGYLRLILPELQARIRTYNQHYNNLLRGAVSQRLYILLPLDCGVPDNLSMADPNIRFLDKLPQQTGDHAGIKDRVYSNSIYELLENGQRAGTCVLEYATPLQTLFAMSQYSQAGFSREDRLEQAKLFCRTLEDILADAPESQNNCRLIAYQEPADDSSFSLSQEVLRHLRQEEKEEVTVGSLKTSAVPSTSTMSQEPELLISGMEKPLPLRTDFS | – | stoichiometry N [1]: 2
STING CTD K150R (domain or fragment, human, UniProt Q86WV6 139-379, looked up) LAPAEISAVCERGNFNVAHGLAWSYYIGYLRLILPELQARIRTYNQHYNNLLRGAVSQRLYILLPLDCGVPDNLSMADPNIRFLDKLPQQTGDHAGIKDRVYSNSIYELLENGQRAGTCVLEYATPLQTLFAMSQYSQAGFSREDRLEQAKLFCRTLEDILADAPESQNNCRLIAYQEPADDSSFSLSQEVLRHLRQEEKEEVTVGSLKTSAVPSTSTMSQEPELLISGMEKPLPLRTDFS | 2 | –
STING CTD K150L (domain or fragment, human, UniProt Q86WV6 139-379, looked up) LAPAEISAVCELGNFNVAHGLAWSYYIGYLRLILPELQARIRTYNQHYNNLLRGAVSQRLYILLPLDCGVPDNLSMADPNIRFLDKLPQQTGDHAGIKDRVYSNSIYELLENGQRAGTCVLEYATPLQTLFAMSQYSQAGFSREDRLEQAKLFCRTLEDILADAPESQNNCRLIAYQEPADDSSFSLSQEVLRHLRQEEKEEVTVGSLKTSAVPSTSTMSQEPELLISGMEKPLPLRTDFS | 2 | –
STING CTD WT (AA139-379) with His-tag, Q86WV6 139-379 (domain or fragment) LAPAEISAVCEKGNFNVAHGLAWSYYIGYLRLILPELQARIRTYNQHYNNLLRGAVSQRLYILLPLDCGVPDNLSMADPNIRFLDKLPQQTGDHAGIKDRVYSNSIYELLENGQRAGTCVLEYATPLQTLFAMSQYSQAGFSREDRLEQAKLFCRTLEDILADAPESQNNCRLIAYQEPADDSSFSLSQEVLRHLRQEEKEEVTVGSLKTSAVPSTSTMSQEPELLISGMEKPLPLRTDFS | – | stoichiometry N [2]: 2
STING CTD K150A (domain or fragment, human, UniProt Q86WV6 139-379, looked up) LAPAEISAVCEAGNFNVAHGLAWSYYIGYLRLILPELQARIRTYNQHYNNLLRGAVSQRLYILLPLDCGVPDNLSMADPNIRFLDKLPQQTGDHAGIKDRVYSNSIYELLENGQRAGTCVLEYATPLQTLFAMSQYSQAGFSREDRLEQAKLFCRTLEDILADAPESQNNCRLIAYQEPADDSSFSLSQEVLRHLRQEEKEEVTVGSLKTSAVPSTSTMSQEPELLISGMEKPLPLRTDFS | 2 | –
STINGΔ1-148 (AA149-379) (domain or fragment, human, UniProt Q86WV6 149-379, looked up) EKGNFNVAHGLAWSYYIGYLRLILPELQARIRTYNQHYNNLLRGAVSQRLYILLPLDCGVPDNLSMADPNIRFLDKLPQQTGDHAGIKDRVYSNSIYELLENGQRAGTCVLEYATPLQTLFAMSQYSQAGFSREDRLEQAKLFCRTLEDILADAPESQNNCRLIAYQEPADDSSFSLSQEVLRHLRQEEKEEVTVGSLKTSAVPSTSTMSQEPELLISGMEKPLPLRTDFS | – | stoichiometry N [3]: 2
